Measured values taken from publication PMC6230944, “Mitochondrial alternative oxidase‐dependent autophagy involved in ethylene‐mediated drought tolerance in Solanum lycopersicum”.
Changes are numbered by the printed parent chain.

B1: ATG18h promoter probe (WT DRE) (dsDNA)
DNA 1: GCGGTGAAAAGACCGACGGACGAAACGTGA
DNA 2: TCACGTTTCGTCCGTCGGTCTTTTCACCGC
B2: ATG8d promoter probe (WT DRE) (dsDNA)
DNA 1: TCACGTTACATATGACCGACATAAAGATAA
DNA 2: TTATCTTTATGTCGGTCATATGTAACGTGA
B3: ATG18h-competitor (mutated DRE) (dsDNA)
DNA 1: B1 DNA 1 with C13T, C14T
DNA 2: B1 DNA 2 with G17A, G18A
B4: ATG8d-competitor (mutated DRE) (dsDNA)
DNA 1: B2 DNA 1 with C17A, G18A
DNA 2: B2 DNA 2 with C13T, G14T

These binders were tested against ERF5 (Solanum lycopersicum, UniProt Q6Q4I4 1-244) (assay: EMSA; EMSA Kit with SYBR Green & SYPRO Ruby stains (Invitrogen), per kit instructions; buffer, salt, pH, temperature not stated). Conditions: protein: recombinant; tags: pET-32a vector fusion (His control used); label: none (SYBR Green stain).
Chain of ERF5 (Q6Q4I4 entry or part of it): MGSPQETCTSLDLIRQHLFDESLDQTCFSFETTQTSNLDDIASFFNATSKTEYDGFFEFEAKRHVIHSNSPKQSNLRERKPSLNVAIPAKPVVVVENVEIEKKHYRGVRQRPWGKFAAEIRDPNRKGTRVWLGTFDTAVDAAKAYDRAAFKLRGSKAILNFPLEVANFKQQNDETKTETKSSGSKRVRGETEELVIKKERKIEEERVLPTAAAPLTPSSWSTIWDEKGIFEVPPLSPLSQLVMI

Row | Binder | binding result
1 | B1 | binds
2 | B2 | binds
3 | B3 | no binding
4 | B4 | no binding
